According to patent US11866467:

What was measured:
[1] = biological target: TGF-β receptor on human peripheral blood CD4+ T cells (human) (UniProt P36897); assay: cell-based or functional assay
[2] = biological target: TGF-β receptor (type I and II receptors) on mouse cells (MFB-F11 fibroblasts, mouse splenocytes, mouse CD4+ T cells) (mouse) (UniProt Q64729); assay: cell-based or functional assay
Chain of UniProt Q64729 (Q64729 30-503, chain 1 of 2): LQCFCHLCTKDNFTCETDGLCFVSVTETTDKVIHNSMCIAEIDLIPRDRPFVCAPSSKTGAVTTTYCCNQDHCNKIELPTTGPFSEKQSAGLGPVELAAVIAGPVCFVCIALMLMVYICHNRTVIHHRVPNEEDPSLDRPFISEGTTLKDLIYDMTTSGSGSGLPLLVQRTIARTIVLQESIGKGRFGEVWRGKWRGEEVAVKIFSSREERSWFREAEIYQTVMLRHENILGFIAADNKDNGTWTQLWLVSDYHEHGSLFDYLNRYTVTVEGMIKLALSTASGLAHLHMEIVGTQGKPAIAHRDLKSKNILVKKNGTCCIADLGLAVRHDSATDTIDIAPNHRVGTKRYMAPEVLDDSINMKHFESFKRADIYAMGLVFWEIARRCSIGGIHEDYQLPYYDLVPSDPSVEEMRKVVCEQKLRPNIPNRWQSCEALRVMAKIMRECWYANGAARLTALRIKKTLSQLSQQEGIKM
Chain of UniProt Q64729 (Q62312 24-567, chain 2 of 2, further chain): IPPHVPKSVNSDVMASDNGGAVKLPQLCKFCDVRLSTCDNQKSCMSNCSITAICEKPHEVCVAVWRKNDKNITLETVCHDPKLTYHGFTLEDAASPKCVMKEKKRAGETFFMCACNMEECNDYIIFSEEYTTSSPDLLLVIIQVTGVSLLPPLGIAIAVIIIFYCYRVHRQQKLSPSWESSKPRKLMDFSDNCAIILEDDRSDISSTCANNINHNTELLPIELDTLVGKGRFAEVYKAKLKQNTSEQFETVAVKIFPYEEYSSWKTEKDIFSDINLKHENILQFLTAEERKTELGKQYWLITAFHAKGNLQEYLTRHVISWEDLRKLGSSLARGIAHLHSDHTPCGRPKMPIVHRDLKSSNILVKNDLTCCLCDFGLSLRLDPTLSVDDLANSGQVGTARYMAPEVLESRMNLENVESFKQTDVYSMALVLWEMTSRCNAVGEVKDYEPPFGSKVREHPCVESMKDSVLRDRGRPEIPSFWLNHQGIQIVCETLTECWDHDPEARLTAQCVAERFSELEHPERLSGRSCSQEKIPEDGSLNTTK

Chain of UniProt P36897 (P36897 34-503, chain 1 of 2): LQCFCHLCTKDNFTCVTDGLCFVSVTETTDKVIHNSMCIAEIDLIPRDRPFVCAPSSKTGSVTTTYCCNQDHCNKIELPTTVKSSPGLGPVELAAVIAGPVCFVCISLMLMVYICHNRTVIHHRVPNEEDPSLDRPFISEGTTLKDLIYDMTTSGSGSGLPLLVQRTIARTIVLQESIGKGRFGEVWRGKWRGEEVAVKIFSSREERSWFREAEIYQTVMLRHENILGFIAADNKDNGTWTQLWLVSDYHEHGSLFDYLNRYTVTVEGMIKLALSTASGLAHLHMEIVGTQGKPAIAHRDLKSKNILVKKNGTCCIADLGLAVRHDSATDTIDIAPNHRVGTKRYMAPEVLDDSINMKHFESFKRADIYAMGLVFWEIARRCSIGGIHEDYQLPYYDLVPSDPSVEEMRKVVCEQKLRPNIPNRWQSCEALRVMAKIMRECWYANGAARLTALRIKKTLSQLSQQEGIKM
Chain of UniProt P36897 (P37173 23-567, chain 2 of 2, further chain): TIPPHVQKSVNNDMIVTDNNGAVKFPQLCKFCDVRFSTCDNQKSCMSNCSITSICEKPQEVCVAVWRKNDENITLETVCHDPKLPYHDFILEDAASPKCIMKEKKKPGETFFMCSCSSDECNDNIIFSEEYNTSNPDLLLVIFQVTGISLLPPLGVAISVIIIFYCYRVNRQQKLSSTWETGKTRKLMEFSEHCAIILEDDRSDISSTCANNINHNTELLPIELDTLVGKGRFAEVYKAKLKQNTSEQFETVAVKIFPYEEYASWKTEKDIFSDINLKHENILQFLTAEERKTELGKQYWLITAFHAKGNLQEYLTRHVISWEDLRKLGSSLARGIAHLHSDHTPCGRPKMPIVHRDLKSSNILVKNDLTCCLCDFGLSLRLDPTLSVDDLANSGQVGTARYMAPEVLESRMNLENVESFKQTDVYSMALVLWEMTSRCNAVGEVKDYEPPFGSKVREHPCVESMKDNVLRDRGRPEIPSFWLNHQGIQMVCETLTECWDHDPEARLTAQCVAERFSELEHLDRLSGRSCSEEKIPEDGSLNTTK

| Foxp3+ Treg conversion, % of all mouse CD4+ cells at 10 ng/ml (0.78 nM monomeric hTGF-β1) [2] | Substance | CD4+CD25+Foxp3+ Treg among human CD4+ T cells, maximum [1] | Foxp3+ Treg conversion, % of all mouse CD4+ cells at 38.1 ng/ml (0.78 nM) [2] | MFB-F11 reporter cells, alkaline phosphatase, OD405 at 100 ng/ml (maximum signal) [2] |
| --- | --- | --- | --- | --- |
| – | H. polygyrus TGF-β Mimic (TGM), purified recombinant protein with hexa-histidine C-terminal tag (ligand) | 84% | 90.7% | 2.46 OD405 |
| 79.7% | recombinant human TGF-β1 (R&D Systems) (from UniProt P01137 279-390) (ligand) | – | – | 1.48 OD405 |
